Measured values taken from the supplement of paper PMC10567573.

B1: NECAB1 (parent)
chain: NLDTEELCEYFSQHLGEYENVLAA

Variants of: B1
Assay: protein stability index of a GFP-peptide fusion (GPS, HEK-293T) (PSI 1-6); higher = more stable
Conditions: c terminus: a fixed tail appended
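Further: lentivirally expressed fusions sorted by FACS into six bins by GFP to DsRed ratio, PSI derived from sequencing read proportions per bin multiplied by bin number.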

Variant	protein stability index
L22P	4.25
L22M	3.71
L22I	2.53
L22S	4.64
L22H	4.32
L22K	4.61
L22Q	4.36
L22N	4.36
L22G	4.3
L22Y	3.52
L22V	3.26
L22W	2.55
L22T	4.36
L22R	4.39
A24I	2.26
A24G	2.22
A24D	3.98
A24M	1.92
A24W	2.27
A24H	3.35
A24Q	3.12
A24P	3.43
A24V	2.8
A24K	2.69
A24C	2.25
A24R	1.82

Variant	protein stability index
A24E	3.53
A24S	3.21
A24F	2.02
A24T	2.99
A24Y	2.59
A24L	2.82
A24N	2.02
A23P	3.65
A23N	3.98
A23Q	3.68
A23M	2.18
A23F	2.28
A23I	2.02
A23S	2.23
A23H	2.83
A23K	2.17
A23T	3.06
A23G	2.93
A23R	2.51
A23V	2.21
A23L	1.75
A23C	2.46
A23Y	2.2
A23E	4.5
A23W	1.91
A23D	4.52
